Results as given in paper PMC8724787, “The epitope arrangement on flavivirus particles contributes to Mab C10’s extraordinary neutralization breadth across Zika and dengue viruses” (Cell, 2021).

T1: DENV4_Burma/63632/1976 sE protein (aa 1-395) (Dengue virus 4 (strain Burma/63632/1976))
T1 construct: also called DENV4 sE
T1 chain: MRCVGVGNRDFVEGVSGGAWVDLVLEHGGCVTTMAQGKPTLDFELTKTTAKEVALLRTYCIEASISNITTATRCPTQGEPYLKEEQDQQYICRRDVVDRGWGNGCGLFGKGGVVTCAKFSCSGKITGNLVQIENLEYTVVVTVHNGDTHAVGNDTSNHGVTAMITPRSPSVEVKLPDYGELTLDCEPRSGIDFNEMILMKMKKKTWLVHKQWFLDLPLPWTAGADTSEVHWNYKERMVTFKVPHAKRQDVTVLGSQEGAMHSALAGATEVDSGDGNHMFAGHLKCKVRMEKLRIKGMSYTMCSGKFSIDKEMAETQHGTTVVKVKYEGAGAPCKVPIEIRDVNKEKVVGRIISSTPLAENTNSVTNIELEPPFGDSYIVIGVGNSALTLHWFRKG


Assays:
[1] = biological target: T2, ZIKV-H/PF/2013 sE protein (aa 1-404) (Zika virus (strain H/PF/2013)); experiment: BLI
T2 construct: also called ZIKV sE; ZIKV (sE)2

[2] = biological target: T2, ZIKV-H/PF/2013 sE protein (aa 1-404); experiment: SEC-MALS; Superdex 200 10/300 GL; Tris 50 mM pH 8.0, NaCl 500 mM; about 150 ug protein; proteins alone and in complex; details: both partners purified
[3] = biological target: T1, DENV4_Burma/63632/1976 sE protein (aa …); experiment: crystal structure; details: both partners purified

Row | Binder | stoichiometry N [2] | also measured
1 | K^L66A C10 mAb mutant (IgG1) (antibody, V domains shown, IgG1) VH: EVQLVESGAEVKKPGASVKVSCKASGYTFTSYAMHWVRQAPGQRLEWMGWINAGNGNTKYSQKFQDRVTITRDTSASTAYMELSSLRSEDTAIYYCARDKVDDYGDYWFPTLWYFDYWGQGTLVTVSS VL: QSALTQPASVSGSPGQSITISCTGTSSDVGGFNYVSWFQQHPGKAPKLMLYDVTSRPSGVSSRFSGSASGNTASLTISGLQAEDEADYYCSSHTSRGTWVFGGGTKLTVL |  | other [1]: 2 fold
2 | C10 bivalent F(ab')2 (other, human) VH: EVQLVESGAEVKKPGASVKVSCKASGYTFTSYAMHWVRQAPGQRLEWMGWINAGNGNTKYSQKFQDRVTITRDTSASTAYMELSSLRSEDTAIYYCARDKVDDYGDYWFPTLWYFDYWGQGTLVTVSS VL: QSALTQPASVSGSPGQSITISCTGTSSDVGGFNYVSWFQQHPGKAPKLMLYDVTSRPSGVSSRFSGSKSGNTASLTISGLQAEDEADYYCSSHTSRGTWVFGGGTKLTVL | 1 C10 molecule per sE dimer (2:2) | 
3 | C10 single-chain variable fragment (scFv) (scFv, V domains shown) VH: EVQLVESGAEVKKPGASVKVSCKASGYTFTSYAMHWVRQAPGQRLEWMGWINAGNGNTKYSQKFQDRVTITRDTSASTAYMELSSLRSEDTAIYYCARDKVDDYGDYWFPTLWYFDYWGQGTLVTVSS VL: QSALTQPASVSGSPGQSITISCTGTSSDVGGFNYVSWFQQHPGKAPKLMLYDVTSRPSGVSSRFSGSKSGNTASLTISGLQAEDEADYYCSSHTSRGTWVFGGGTKLTVL |  | binding result [3]: binds
4 | C10 intact bivalent IgG1 (human monoclonal antibody EDE1 C10) (antibody, V domains shown) VH: EVQLVESGAEVKKPGASVKVSCKASGYTFTSYAMHWVRQAPGQRLEWMGWINAGNGNTKYSQKFQDRVTITRDTSASTAYMELSSLRSEDTAIYYCARDKVDDYGDYWFPTLWYFDYWGQGTLVTVSS VL: QSALTQPASVSGSPGQSITISCTGTSSDVGGFNYVSWFQQHPGKAPKLMLYDVTSRPSGVSSRFSGSKSGNTASLTISGLQAEDEADYYCSSHTSRGTWVFGGGTKLTVL | 1 C10 molecule per sE dimer (2:2) | 
